The values that follow are results of earlier work, collected in paper PMC9713128.

The data set concerns the target HBcAg (Hepatitis B virus) (UniProt P03149). In words: solution binding assay.
Sequence of UniProt P03149 (P03149 whole entry): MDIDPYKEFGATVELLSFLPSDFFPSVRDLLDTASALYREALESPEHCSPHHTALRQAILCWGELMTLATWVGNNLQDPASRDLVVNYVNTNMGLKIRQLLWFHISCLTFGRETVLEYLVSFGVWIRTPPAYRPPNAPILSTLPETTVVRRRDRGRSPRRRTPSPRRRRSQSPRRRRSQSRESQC

One may read the Kd as the concentration at which binding is half-saturated. In the case of cyclic peptide C-WPFWGPW-C, the Kd was < 25 nM. On to cyclic peptide C-WSFFSNI-C, for which the Kd is < 25 nM.
